In PMC8140157, “RTEL1 influences the abundance and localization of TERRA RNA” (Nature Communications, 2020):

Tests used:
RTEL1∆1143 = target: T1, RTEL1∆1143 (human, UniProt Q9NZ71-6 1143-1300); test: EMSA; negligible at 5 uM protein; 150 mM KCl; 20 mM Tris pH 7.5, 50 mM KCl, 0.5 mM TCEP, 0.5 mM MgCl2, 10% glycerol, 0.1% IGEPAL, room temperature 30 min; oligos refolded in 10 mM Tris pH 7.5, 100 mM KCl; EMSA legends give 150 or 300 mM KCl; conditions: protein: recombinant; tags: 6xHis; label: 5' fluorescein; G4
T1 sequence: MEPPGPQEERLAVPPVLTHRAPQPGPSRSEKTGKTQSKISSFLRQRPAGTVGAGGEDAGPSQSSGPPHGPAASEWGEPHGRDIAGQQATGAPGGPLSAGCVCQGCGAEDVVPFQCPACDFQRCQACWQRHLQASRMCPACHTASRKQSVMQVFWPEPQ

RTEL1∆762 [1] = target: T2, RTEL1∆762 (human, UniProt Q9NZ71-6 762-1300); test: fluorescence anisotropy; RNA folded in 100 mM KCl; text: <10 nM, at detection limit; 20 mM Tris pH 7.5, 50 mM KCl, 0.5 mM TCEP, 0.5 mM MgCl2, 10% glycerol, 0.1% IGEPAL, room temperature 30 min; oligos refolded in 10 mM Tris pH 7.5, 100 mM KCl; EMSA legends give 150 or 300 mM KCl; conditions: protein: recombinant; tags: 6xHis; chain copies: 2; label: 5' fluorescein; G4
T2 sequence: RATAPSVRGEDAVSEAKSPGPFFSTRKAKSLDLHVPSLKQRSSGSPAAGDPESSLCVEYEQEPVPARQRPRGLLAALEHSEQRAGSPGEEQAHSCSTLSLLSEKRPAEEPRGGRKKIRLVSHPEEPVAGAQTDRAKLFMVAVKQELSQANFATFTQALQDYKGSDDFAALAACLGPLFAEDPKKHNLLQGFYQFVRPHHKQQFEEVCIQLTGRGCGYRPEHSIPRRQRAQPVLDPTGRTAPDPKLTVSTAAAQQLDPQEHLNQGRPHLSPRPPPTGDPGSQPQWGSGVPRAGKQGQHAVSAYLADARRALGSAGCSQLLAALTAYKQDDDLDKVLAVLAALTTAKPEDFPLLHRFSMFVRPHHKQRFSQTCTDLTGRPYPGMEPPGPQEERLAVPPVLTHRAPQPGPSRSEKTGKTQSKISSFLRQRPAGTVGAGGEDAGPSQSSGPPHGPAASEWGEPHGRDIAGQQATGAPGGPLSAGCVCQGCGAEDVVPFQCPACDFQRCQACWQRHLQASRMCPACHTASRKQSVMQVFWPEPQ

RTEL1∆762 [2] = target: T2, RTEL1∆762; test: fluorescence anisotropy; 20 mM Tris pH 7.5, 50 mM KCl, 0.5 mM TCEP, 0.5 mM MgCl2, 10% glycerol, 0.1% IGEPAL, room temperature 30 min; oligos refolded in 10 mM Tris pH 7.5, 100 mM KCl; EMSA legends give 150 or 300 mM KCl; conditions: protein: recombinant, tags: 6xHis, chain copies: 2, label: 5' fluorescein
RTEL1∆762-1097 [3] = target: T3, RTEL1∆762-1097 (human, UniProt Q9NZ71-6 762-1097); test: competition (fluorescence anisotropy); vs FAM-TERRA-MUT, 1 uM; 20 mM Tris pH 7.5, 50 mM KCl, 0.5 mM TCEP, 0.5 mM MgCl2, 10% glycerol, 0.1% IGEPAL, room temperature 30 min; oligos refolded in 10 mM Tris pH 7.5, 100 mM KCl; EMSA legends give 150 or 300 mM KCl; conditions: protein: recombinant, tags: 6xHis
T3 sequence: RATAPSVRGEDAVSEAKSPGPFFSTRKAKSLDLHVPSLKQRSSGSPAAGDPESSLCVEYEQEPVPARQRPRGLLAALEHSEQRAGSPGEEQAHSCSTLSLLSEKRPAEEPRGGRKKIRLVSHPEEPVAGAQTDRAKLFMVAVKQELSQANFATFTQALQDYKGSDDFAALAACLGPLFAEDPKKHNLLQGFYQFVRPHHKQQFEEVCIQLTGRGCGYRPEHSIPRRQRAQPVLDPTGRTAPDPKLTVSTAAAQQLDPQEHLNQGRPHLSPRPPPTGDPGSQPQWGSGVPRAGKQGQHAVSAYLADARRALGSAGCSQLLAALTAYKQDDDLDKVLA

RTEL1∆762 [4] = target: T2, RTEL1∆762; test: as above; conditions: protein: recombinant, tags: 6xHis, chain copies: 2
RTEL1∆762R1264H [5] = target: T4, RTEL1∆762R1264H (human, UniProt Q9NZ71-6 762-1300, R1264H); test: as above; conditions: protein: recombinant, tags: 6xHis
T4 sequence: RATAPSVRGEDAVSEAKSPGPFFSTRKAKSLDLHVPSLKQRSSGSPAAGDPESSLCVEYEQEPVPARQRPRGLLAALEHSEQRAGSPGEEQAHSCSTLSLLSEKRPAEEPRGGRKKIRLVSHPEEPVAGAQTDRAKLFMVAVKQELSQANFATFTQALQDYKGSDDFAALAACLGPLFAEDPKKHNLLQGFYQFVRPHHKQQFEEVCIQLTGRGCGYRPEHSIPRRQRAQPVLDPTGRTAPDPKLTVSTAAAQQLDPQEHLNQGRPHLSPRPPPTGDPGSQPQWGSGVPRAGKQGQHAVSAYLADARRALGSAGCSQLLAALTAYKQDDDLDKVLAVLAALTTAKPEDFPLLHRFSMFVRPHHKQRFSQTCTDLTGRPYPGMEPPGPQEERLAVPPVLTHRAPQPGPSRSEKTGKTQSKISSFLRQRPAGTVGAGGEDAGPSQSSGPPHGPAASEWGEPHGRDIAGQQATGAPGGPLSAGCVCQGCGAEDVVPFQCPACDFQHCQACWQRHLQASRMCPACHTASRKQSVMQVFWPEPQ

RTEL1∆762-1097 [6] = target: T3, RTEL1∆762-1097; test: competition (fluorescence anisotropy); vs FAM-TERRA-MUT, 200 nM; 20 mM Tris pH 7.5, 50 mM KCl, 0.5 mM TCEP, 0.5 mM MgCl2, 10% glycerol, 0.1% IGEPAL, room temperature 30 min; oligos refolded in 10 mM Tris pH 7.5, 100 mM KCl; EMSA legends give 150 or 300 mM KCl; conditions: protein: recombinant, tags: 6xHis
RTEL1∆762 [7] = target: T2, RTEL1∆762; test: as above; conditions: protein: recombinant, tags: 6xHis, chain copies: 2
RTEL1∆762R1264H [8] = target: T4, RTEL1∆762R1264H; test: as above; conditions: protein: recombinant, tags: 6xHis
RTEL1∆762 [9] = target: T2, RTEL1∆762; test: fluorescence anisotropy; RNA folded in 100 mM KCl; 20 mM Tris pH 7.5, 50 mM KCl, 0.5 mM TCEP, 0.5 mM MgCl2, 10% glycerol, 0.1% IGEPAL, room temperature 30 min; oligos refolded in 10 mM Tris pH 7.5, 100 mM KCl; EMSA legends give 150 or 300 mM KCl; conditions: protein: recombinant; tags: 6xHis; chain copies: 2; label: 5' fluorescein; no G4
RTEL1∆762 [10] = target: T2, RTEL1∆762; test: competition (fluorescence anisotropy); vs FAM-TERRA-MUT, 200 nM; error in main text misprinted as 0.74 nM; 20 mM Tris pH 7.5, 50 mM KCl, 0.5 mM TCEP, 0.5 mM MgCl2, 10% glycerol, 0.1% IGEPAL, room temperature 30 min; oligos refolded in 10 mM Tris pH 7.5, 100 mM KCl; EMSA legends give 150 or 300 mM KCl; conditions: protein: recombinant; tags: 6xHis; chain copies: 2; no G4
RTEL1∆762 [11] = target: T2, RTEL1∆762; test: fluorescence anisotropy; RNA folded in 0 mM KCl; 20 mM Tris pH 7.5, 50 mM KCl, 0.5 mM TCEP, 0.5 mM MgCl2, 10% glycerol, 0.1% IGEPAL, room temperature 30 min; oligos refolded in 10 mM Tris pH 7.5, 100 mM KCl; EMSA legends give 150 or 300 mM KCl; conditions: protein: recombinant; tags: 6xHis; chain copies: 2; label: 5' fluorescein; no G4 (folded without KCl)
[12] = target: the molecule itself; test: SEC-MALS; 200-300 µg protein on Superdex 200 10/300 GL, 0.3 ml per minute, 50 mM Hepes pH 7.5, 1 mM TCEP, 150 or 300 mM NaCl; dimer to monomers

Does UUAGGGUUAGGGUUAGGGUUAGGG (structured_RNA) [TERRA (FAM), folded in KCl] bind (RTEL1∆1143)?
Result: no binding

And the Kd (RTEL1∆762 [1])?
The Kd was 1.3 ± 3.6 nM.

AAAAAAAAAAAAAAAAAAAAAAAA (ssRNA) [Poly A 24mer] was tested. Which Kd (RTEL1∆762 [2]) did it give?
The Kd was 498 ± 47.8 nM.

GGTTACCGTTACCGTTACCGTTACCGTTAG (ssDNA) [hTelo-MUT] was tested. Which Ki (RTEL1∆762-1097 [3]; no G4) did it give?
Its Ki is 12600 ± 8470 nM.

What about the Ki (RTEL1∆762 [4]; no G4) of the same binder?
Its Ki is 420 ± 140 nM.

What about the Ki (RTEL1∆762R1264H [5]; no G4) of the same binder?
The Ki was 1750 ± 520 nM.

And the Ki (RTEL1∆762-1097 [6]; no G4)?
Its Ki is 826 ± 134 nM.

What about the Ki (RTEL1∆762 [7]; no G4) of the same binder?
The Ki was 93 ± 11 nM.

And the Ki (RTEL1∆762R1264H [8]; no G4)?
The Ki was 309 ± 68 nM.

With GGTTAGGGTTAGGGTTAGGGTTAGGGTTAG (structured_DNA) [hTelo] as the binder, how does the Ki (RTEL1∆762-1097 [3]; G4) read?
The Ki was 1720 ± 302 nM.

And the Ki (RTEL1∆762 [4]; G4)?
Its Ki is 74 ± 12 nM.

What about the Ki (RTEL1∆762R1264H [5]; G4) of the same binder?
The Ki was 212 ± 17 nM.

And the Ki (RTEL1∆762-1097 [6]; G4)?
The Ki was 276 ± 39 nM.

And the Ki (RTEL1∆762 [7]; G4)?
The Ki was 29 ± 4 nM.

And the Ki (RTEL1∆762R1264H [8]; G4)?
Its Ki is 47 ± 9 nM.

Which results are given for UUAGGGUUAGGGUUAGGGUUAGGG (structured_RNA) [TERRA competitor]?
Ki (RTEL1∆762-1097 [3]; G4): 978 ± 84 nM; Ki (RTEL1∆762 [4]; G4): 29 ± 4 nM; Ki (RTEL1∆762R1264H [5]; G4): 107 ± 14 nM; Ki (RTEL1∆762-1097 [6]; G4): 245 ± 35 nM; Ki (RTEL1∆762 [7]; G4): 17 ± 3 nM; Ki (RTEL1∆762R1264H [8]; G4): 30 ± 7 nM

For UUACCGUUACCGUUACCGUUACCG (ssRNA) [TERRA-MUT (FAM)], which Kd (RTEL1∆762 [9]) is on record?
The Kd was 108 ± 21.6 nM.

Which Ki (RTEL1∆762-1097 [3]; no G4) does the source give for UUACCGUUACCGUUACCGUUACCG (ssRNA) [TERRA-MUT competitor] here?
Its Ki is 16100 ± 15000 nM.

What about the Ki (RTEL1∆762 [4]; no G4) of the same binder?
Its Ki is 1450 ± 73 nM.

What about the Ki (RTEL1∆762R1264H [5]; no G4) of the same binder?
The Ki was 3810 ± 1450 nM.

And the Ki (RTEL1∆762-1097 [6]; no G4)?
Its Ki is 1650 ± 377 nM.

And the Ki (RTEL1∆762R1264H [8]; no G4)?
Its Ki is 850 ± 125 nM.

What about the Ki (RTEL1∆762 [10]) of the same binder?
The Ki was 442 ± 74 nM.

For AUUAUUAUUAUUAUUAUUAUUAUU (ssRNA) [AU-rich 24mer], which Kd (RTEL1∆762 [2]; unstructured) is on record?
Its Kd is 42 ± 6.1 nM.

With UUAGGGUUAGGGUUAGGGUUAGGG (ssRNA) [TERRA (FAM), not folded (0 mM KCl)] as the binder, how does the Kd (RTEL1∆762 [11]) read?
Its Kd is 37.1 ± 9.6 nM.

B1: RTEL1^∆762 (human RTEL1 residues 762-1300, lacks the helicase domain) (domain or fragment, UniProt Q9NZ71-6 762-1300, looked up)
chain: RATAPSVRGEDAVSEAKSPGPFFSTRKAKSLDLHVPSLKQRSSGSPAAGDPESSLCVEYEQEPVPARQRPRGLLAALEHSEQRAGSPGEEQAHSCSTLSLLSEKRPAEEPRGGRKKIRLVSHPEEPVAGAQTDRAKLFMVAVKQELSQANFATFTQALQDYKGSDDFAALAACLGPLFAEDPKKHNLLQGFYQFVRPHHKQQFEEVCIQLTGRGCGYRPEHSIPRRQRAQPVLDPTGRTAPDPKLTVSTAAAQQLDPQEHLNQGRPHLSPRPPPTGDPGSQPQWGSGVPRAGKQGQHAVSAYLADARRALGSAGCSQLLAALTAYKQDDDLDKVLAVLAALTTAKPEDFPLLHRFSMFVRPHHKQRFSQTCTDLTGRPYPGMEPPGPQEERLAVPPVLTHRAPQPGPSRSEKTGKTQSKISSFLRQRPAGTVGAGGEDAGPSQSSGPPHGPAASEWGEPHGRDIAGQQATGAPGGPLSAGCVCQGCGAEDVVPFQCPACDFQRCQACWQRHLQASRMCPACHTASRKQSVMQVFWPEPQ
notes: residue numbers run to 1300; Cloned between EcoRI and XhoI of pET28; expected monomer mass printed as 62 kDa; source: E. coli BL21, purified (His-trap, Hi-Trap Q, Superdex 200)
With B1 as the binder, how does the “stoichiometry N” value [12] read?
The value was 2.
